Measured values reported in paper PMC5922973, “Topoisomerase VI senses and exploits both DNA crossings and bends to facilitate strand passage” (eLife, 2018).

What was measured:
[1] = target: the molecule itself; assay: FRET or BRET; bulk FRET between Alexa555 and Alexa647 on Cys180 of the ATP gate; 200 nM topo II, 0 or 100 uM bp supercoiled DNA, 100 mM KCl, 10 mM Tris-HCl pH 7.9, 5 mM MgCl2, 0 or 1 mM AMPPNP
[2] = target: the molecule itself; assay: SEC; topo VI co-expressed in E. coli and co-purified through His6-Top6B (Ni2+, SP/Q, TEV, Ni2+), then Sephacryl-300 HR gel filtration in 20 mM HEPES-KOH pH 7.5, 300 mM KCl, 10% glycerol; heterotetramer peak

B1: S. cerevisiae topoisomerase II 1-1177 cyslite-180C, Alexa555/Alexa647-labeled (enzyme, Saccharomyces cerevisiae, UniProt P06786 1-1177, looked up)
chain: MSTEPVSASDKYQKISQLEHILKRPDTYIGSVETQEQLQWIYDEETDAMIEKNVTIVPGLFKIFDEILVNAADNKVRDPSMKRIDVNIHAEEHTIEVKNDGKGIPIEIHNKENIYIPEMIFGHLLTSSNYDDDEKKVTGGRNGYGAKLCNIFSTEFILETADLNVGQKYVQKWENNMSICHPPKITSYKKGPSYTKVTFKPDLTRFGMKELDNDILGVMRRRVYDINGSVRDINVYLNGKSLKIRNFKNYVELYLKSLEKKRQLDNGEDGAAKSDIPTILYERINNRWEVAFAVSDISFQQISFVNSIATTMGGTHVNYITDQIVKKISEILKKKKKKSVKSFQIKNNMFIFINCLIENPAFTSQTKEQLTTRVKDFGSRAEIPLEYINKIMKTDLATRMFEIADANEENALKKSDGTRKSRITNYPKLEDANKAGTKEGYKCTLVLTEGDSALSLAVAGLAVVGRDYYGAYPLRGKMLNVREASADQILKNAEIQAIKKIMGLQHRKKYEDTKSLRYGHLMIMTDQDHDGSHIKGLIINFLESSFPGLLDIQGFLLEFITPIIKVSITKPTKNTIAFYNMPDYEKWREEESHKFTWKQKYYKGLGTSLAQEVREYFSNLDRHLKIFHSLQGNDKDYIDLAFSKKKADDRKEWLRQYEPGTVLDPTLKEIPISDFINKELILFSLADNIRSIPNVLDGFKPGQRKVLYGCFKKNLKSELKVAQLAPYVSEATAYHHGEQSLAQTIIGLAQNFVGSNNIYLLLPNGAFGTRATGGKDAAAARYIYTELNKLTRKIFHPADDPLYKYIQEDEKTVEPEWYLPILPMILVNGAEGIGTGWSTYIPPFNPLEIIKNIRHLMNDEELEQMHPWFRGWTGTIEEIEPLRYRMYGRIEQIGDNVLEITELPARTWTSTIKEYLLLGLSGNDKIKPWIKDMEEQHDDNIKFIITLSPEEMAKTRKIGFYERFKLISPISLMNMVAFDPHGKIKKYNSVNEILSEFYYVRLEYYQKRKDHMSERLQWEVEKYSFQVKFIKMIIEKELTVTNKPRNAIIQELENLGFPRFNKEGKPYYGSPNDEIAEQINDVKGATSDEEDEESSHEDTENVINGPEELYGTYEYLLGMRIWSLTKERYQKLLKQKQEKETELENLLKLSAKDIWNTDLKAFEVGYQEFLQRDAEAR
modifications: Alexa Fluor 555 C2 maleimide or Alexa Fluor 647 C2 maleimide on the native cysteine 180
notes: Saccharomyces cerevisiae topoisomerase II, C-terminal truncation coding for residues 1-1177 (Schmidt et al., 2012), with four cysteines changed to alanine; also called ScTop2^ΔCTR-cyslite-180C; topo II; not shown: His6, N-terminal, cleaved
[1]
  binding result: binds

B2: Methanosarcina mazei topoisomerase VI subunit A (Top6A) (enzyme)
chain: MEGEKGSKTRKGDALAREKLLEIAEKIYNQFEEEVVPSVSLPSRTKANLEYSDESDVWVYGDRESERSAKTVKGAFQLLKTTYATDFLINEHLARNRGSTLRELYYISEGWDYAKFKEQGESDRLIEDLEILTSLQREYFHMRPEEDGATMFGPIEITEQTKRGERNIHCQKDVGEGGYQIPFNVENIEFQKHDASMIIAIETGGMYARLMENGFDEAYNAILVHLKGQPARSTRRIIKRMNEELGIPVAVFTDGDPWSYRIYASVAYGAIKSAHLSEFMATPAAKFLGLQPSDIVEYELSTDKLTEQDVSALRSELSDPRFESDYWKEQIQLQLDIGKKAEQQAFAGKGLDFVTEVYLPNRLKEMGMI
notes: Top6A of Methanosarcina mazei topo VI; the Top6A gene cloned into a polycistronic expression vector (Corbett et al., 2007); Two Top6A and two Top6B form the A2B2 heterotetramer; also called MmTop6A; A subunit of topo VI
[2]
  binding result: binds
